The values below come from patent US6451314B1, “MHC conjugates useful in ameliorating autoimmunity” (Anergen, Inc., priority 1988, dated 2002).

For data set [1], the system named is RT1.D. As to the kind of experiment: Peptide loading of rat MHC II (nitrocellulose filter binding and TLC). As to conditions: 50-fold molar excess peptide, 37° C., 24 hours. Here is the method: (§1) Rat MHC II Purification and Peptide Loading. Rat class II RT1.B and RT1.D molecules were detergent solubilized (0.5% NP-40, 10 mM Tris HCl pH 8.3, 1 mM PMSF, 0.02% NaN3) from homogenized spleens and purified by affinity chromatography with monoclonal antibodies OX 6 and […]. The RT1.B/D mixture was incubated at 37° C. for 24 hours with a 50-fold molar excess of peptide AChRα 100-116, followed by 24 hours of dialysis at 4° C. against 0.1% OG/PBS to remove unbound peptide. […] This complex is stable at 4° C. for at least 8 weeks.

Data set [2] deals with RT1.B. The data set is described as above. The conditions noted are these: 50-fold molar excess peptide, 37° C., 24 hours. Here is the method:
as §1

Data set [3] has as its system Lewis rats. As to the kind of experiment: Therapeutic treatment of clinical stage 1 EAMG.
Data set [4] can be described thus: Serum half-life of 125I-labeled I-A^s, effect of liposomes. As to conditions: Sets 1 and 2: 10 μg, injected without blank liposomes. The data set is classed as in vivo, mice. Here is the method: (§2) The protocol for these studies was generally as follows: Affinity-purified, soluble MHC molecules were labeled with ^125I by the iodobeads method (Pierce Chemical Co., Rockford, Ill. Excess ^125I was removed by dialysis against PBS containing 0.1% neutral detergent. The quality of the labeled protein was assessed by thin layer chromatography, cellulose acetate electrophoresis, and polyacrylamide gel electrophoresis. The MHC glycoprotein was administered by tail vein injection to mice subjected to Lugol's solution in the drinking water at least one day before injection. Blood samples were obtained at different time points. The animals were then sacrificed to obtain organs of interest. Radioactivity in the blood and organ samples was detected in a gamma well counter according to standard techniques.
I-A^s was labeled as described above. The labeled I-A^s molecules were captured inside liposomes by standard procedures (see, e.g., Remingtion's, supra). Ten mice were injected with 10 μg I-A^s, as described above, and divided into four sets: (1) I-A^s alone; (2) liposomal I-A^s; (3) liposomal I-A^s coinjected with blank liposomes; and (4) blank liposomes plus, 10 minutes later, liposomal I-A^s coinjected with blank liposomes. Blood samples were obtained at different time points after injection, and the percent of injected dose of I-A^s retained in the blood was calculated.

Data set [5] in a line: Serum half-life of 125I-labeled I-A^k, effect of asialoletuin. The format is in vivo, mice. The protocol:
as §2
IA^k was labeled and administered to mice as described above. The mice were divided into three sets: (1) I-A^k (10 μg i.v.); (2) I-A^k (10 μg i.v.) plus asialoletuin (10 mg i.v.) plus asialoletuin (100 mg i.p.); and (3) I-A^k (10 μg i.v.) plus asialoletuin (10 mg i.p.). Blood was drawn at different time points and the percent of injected dose retained in the blood was calculated.

Data set [6] has as its system T cell clones AJ1.2 and 4R3.4. As to the kind of experiment: Proliferation (MTT uptake) of T cell clones with APC and MBP(1-13) after preincubation. The conditions noted are these: preincubation five hours at 37° C., 72-hour incubation. The format is cell-based, mouse. The protocol:
The effects of detergent-solubilized Class II molecules were examined by culturing 1×10^5 AJ1.2 or 4R3.4 cells with 50-100 ul of purified I-A^k alone, purified I-A^k plus MBP(1-13) and medium alone for five hours at 37° C. in 5% CO2. Following this incubation the cells were diluted to 900 ul and tested for their ability to respond to antigen-presenting cells (APC) and antigen [MBP(1-13)] in a proliferation assay. Uptake of 3-(4,5-dimethyl-thiazol-2-7′)-2,5 diphenyltetrazolium bromide (MTT) was used as an indication of cell proliferation.
Data are presented as % suppression of proliferation of cells incubated with Class I+Ag compared to cells cultured with medium alone and were calculated by using the formula:
Therefore, 4R3.4 or AJ1.2 cells were preincubated with 50-100 ul of I-A^k+MBP(1-13), I-A^k, or medium alone for five hours at 37° C. The cells were then diluted to an appropriate concentration and added to APC. Antigen [MBP(1-13)] was added to a final concentration ranging from 13.3 um to 53.2 um.
APC used in the study were prepared from spleens of female A/J mice. […] Following this incubation, spleen cells were washed five times with RPMI containing antibiotics, counted, and used as APC's.
Following a 72-hour incubation period of the cells with APC and MBP(1-13), the extent of proliferation was quantitated using MTT uptake. […]

Data set [7] can be described thus: Serum half-life of 125I-labeled I-A^k, effect of periodate/cyanoborohydride treatment. The data set is classed as in vivo, mice. The conditions noted are these: 10 μg i.v. Here is the method:
as §2
I-A^k in a phosphate buffer containing 3 mM taurodeoxycholate at pH 7.5 was labeled as described above. The labeled molecules were subjected to periodate oxidation and cyanoborohydride reduction for 5 or 21 hours at 4° C., using 20 mM sodium periodate and 40 mM cyanoborohydride (final concentrations) in 0.1 M acetate buffer at pH 5.5. The reaction was quenched by addition of ethylene glycol (final concentration 0.7%). […] Blood samples were obtained at different time points and the percent of injected dose of I-A^k retained in the blood was calculated.

On to YAIVHMTKLLLDYPGKI [AChRα 100-116], for which the “fraction of RT1.D that bound peptide” value in data set [1] is on record as 90-100%. In addition, in data set [2], the “fraction of RT1.B that bound peptide” value is 70-80%. Further, the “clinical stage of representative rat” value in data set [3] (61 days post EAMG induction) was 2.5; in data set [3] (123 days post EAMG induction), “Dead (day 66)”. The molecule also came in with a survival frequency in data set [3] (140 days post-induction, five weekly i.v. injections from clinical stage 1) of 0%.

B1: I-A^k: mouse Class II MHC glycoprotein I-A^k purified by affinity chromatography on 10-2.16 antibody (protein)
MHC II alpha: EDDIEADHVGSYGITVYQSPGDIGQYTFEFDGDELFYVDLDKKETVWMLPEFAQLRRFEPQGGLQNIATGKHNLEILTKRSNSTPATNEAPQATVFPKSPVLLGQPNTLICFVDNIFPPVINITWLRNSKSVTDGVYETSFFVNRDYSFHKLSYLTFIPSDDDIYDCKVEHWGLEEPVLKHWEPEIPAPMSELTE
MHC II beta: GNSERHFVHQFQPFCYFTNGTQRIRLVIRYIYNREEYVRFDSDVGEYRAVTELGRPDAEYWNKQYLERTRAELDTVCRHNYEKTETPTSLRRLEQPSVVISLSRTEALNHHNTLVCSVTDFYPAKIKVRWFRNGQEETVGVSSTQLIRNGDWTFQVLVMLEMTPRRGEVYTCHVEHPSLKSPITVEWRAQSESARSK
On to B1, for which, in data set [4], the serum mean half-life was 2 min. Further, the mean serum half-life in data set [5] (Set 1: I-A^k 10 μg i.v.) was determined as 3 min; in data set [5] (Set 2: I-A^k 10 μg i.v. plus asialoletuin 10 mg i.v. plus asialoletuin 100 mg i.p.), 40 min; in data set [5] (Set 3: I-A^k 10 μg i.v. plus asialoletuin 10 mg i.p.), 35 min. In addition, the “proliferation in presence of APC and MBP(1-13)” value in data set [6] is given as “proliferated to the same extent as cells cultured in medium”. The serum half-life in data set [7] was 4 min.
